US6872803
[ ]: non-standard residue; d: D form. Hyp = O=C(O)[C@@H]1C[C@@H](O)CN1; NMeI = CC[C@H](C)[C@H](NC)C(=O)O

Tests used:
[1] = biological target: Bovine lung-derived ANP receptor (bovine); experiment: displacement of 125I-rat ANP from bovine lung membrane fraction, filter binding
[2] = biological target: BK receptor derived from guinea pig ilea (guinea pig); experiment: inhibition of 3H-BK (200 pM) binding to guinea pig ileum membrane fraction; test compound at 10^-7 M
[3] = biological target: BK receptor derived from guinea pig ilea (guinea pig); experiment: inhibition of 3H-BK (200 pM) binding to guinea pig ileum membrane fraction; test compound at 10^-8 M

Sequence of Bovine lung-derived ANP receptor (bovine) (P10730 42-537): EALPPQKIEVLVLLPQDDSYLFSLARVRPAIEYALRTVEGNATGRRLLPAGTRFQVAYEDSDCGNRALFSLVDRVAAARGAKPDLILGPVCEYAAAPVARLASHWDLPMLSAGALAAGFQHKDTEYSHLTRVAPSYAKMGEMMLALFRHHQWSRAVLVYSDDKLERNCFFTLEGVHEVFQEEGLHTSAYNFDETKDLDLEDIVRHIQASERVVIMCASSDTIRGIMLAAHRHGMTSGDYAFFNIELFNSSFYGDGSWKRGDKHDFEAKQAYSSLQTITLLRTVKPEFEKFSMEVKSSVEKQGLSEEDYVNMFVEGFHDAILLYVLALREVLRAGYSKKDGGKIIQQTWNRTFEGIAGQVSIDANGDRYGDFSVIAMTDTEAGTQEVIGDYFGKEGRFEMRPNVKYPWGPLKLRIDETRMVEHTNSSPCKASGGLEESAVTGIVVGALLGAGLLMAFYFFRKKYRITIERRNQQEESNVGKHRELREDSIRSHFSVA
Sequence of BK receptor derived from guinea pig ilea (guinea pig) (O70526 whole entry): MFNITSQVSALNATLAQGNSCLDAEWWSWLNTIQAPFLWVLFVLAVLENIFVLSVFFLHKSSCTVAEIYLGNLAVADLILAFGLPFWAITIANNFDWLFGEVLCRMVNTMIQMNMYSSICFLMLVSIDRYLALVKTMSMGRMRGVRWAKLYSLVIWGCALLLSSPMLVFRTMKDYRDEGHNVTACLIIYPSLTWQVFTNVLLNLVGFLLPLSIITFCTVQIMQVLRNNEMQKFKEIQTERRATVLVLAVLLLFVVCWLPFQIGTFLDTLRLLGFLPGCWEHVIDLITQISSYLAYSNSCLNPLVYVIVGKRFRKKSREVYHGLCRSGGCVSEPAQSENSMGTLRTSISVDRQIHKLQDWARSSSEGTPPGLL

Row | Binder | IC50 [1] | Percentage inhibition (%) [2] | Percentage inhibition (%) [3]
1 | H-FGG[dR]ID[dR]I-NH2 (SMILES CC[C@H](C)[C@H](NC(=O)[C@@H](CCCNC(=N)N)NC(=O)[C@H](CC(=O)O)NC(=O)[C@@H](NC(=O)[C@@H](CCCNC(=N)N)NC(=O)CNC(=O)CNC(=O)[C@@H](N)Cc1ccccc1)[C@@H](C)CC)C(N)=O) [Compound (j), H-Phe-Gly-Gly-D-Arg-Ile-Asp-D-Arg-Ile-NH2] | 5400 nM |  | 
2 | H-FGGR[NMeI]DRI-NH2 (SMILES CC[C@H](C)[C@H](NC(=O)[C@H](CCCNC(=N)N)NC(=O)[C@H](CC(=O)O)NC(=O)[C@H]([C@@H](C)CC)N(C)C(=O)[C@H](CCCNC(=N)N)NC(=O)CNC(=O)CNC(=O)[C@@H](N)Cc1ccccc1)C(N)=O) [Compound (k), H-Phe-Gly-Gly-Arg-(N-Me)Ile-Asp-Arg-Ile-NH2] | 21 nM |  | 
3 | H-[dR]RP[Hyp]GFS[dF]LR-OH (SMILES CC(C)C[C@H](NC(=O)[C@@H](Cc1ccccc1)NC(=O)[C@H](CO)NC(=O)[C@H](Cc1ccccc1)NC(=O)CNC(=O)[C@@H]1C[C@@H](O)CN1C(=O)[C@@H]1CCCN1C(=O)[C@H](CCCNC(=N)N)NC(=O)[C@H](N)CCCNC(=N)N)C(=O)N[C@@H](CCCNC(=N)N)C(=O)O) [Compound (m), H-D-Arg-Arg-Pro-Hyp-Gly-Phe-Ser-D-Phe-Leu-Arg-OH] |  | 68% | 20%
